Assay: label from the status in PepcDB records

| Sequence | protein production |
| --- | --- |
| MSANLKPGSQVNTDQKPEKTKVLILGGTGEMGQWFTRFFKQKGYEVTVWGKGGKTEIASKLGVPFASDLEKAVPESDILIVSVPINVTEETIAEFAPKMKSGSLLMDFTSIKVKPVEAMKKFAPSDVEILGTHPMFGPTIPTIRGQTVILVPVKGRSEKWFPVIRELFEEGGAHVEITTAAEHDRLVSVVQGLTHFAYITIGTTIDRLDFDIKKSRKFVSPVYAIMLDFVGRILGQNPYLYALIQMENPGVLEVHDAFIRECEELSRLVRAHDEESFVKKMKSAARKYGDTAHALRKSDKLINSRITEYETILNSVGKVCGFSHFYSGKIHVGILGKAGPDEIVLTKMVSKGTSPHIKNKFVKLKLENLRMLSESELWEWRKENLEHSTRDISVLIPEGADPEVILNAINTNKQLAACEISDIYKGVNQGDHKRINRGDYKEFNRIETEKEREEAKRLGVTYRITVFGDCDANSVEADVTSLLCGLGCRIREKNLKQIEKTEPKR | failed |
| MSANSHFHSTHESHYQCAVCSSIDANPNSLAVNYQCLADSSVVGEFHVLPRHQGYTDLLHGGIASSLLDGAMTHCLLFRDIQALTAQLDVRYHAPIELDEHVTITAHCEGERRGIYQLVAQLLVNNEVRVTAKGKFIRPKEA | failed |
| MSAPCCGCGKTLDVAAMHARQRRVLWWVLAINAGSFALMLAGALHSGAASLLSGSLDNLGDALTYALSLAVVGASMAAKARVALLKAGLILLAALAVAAEIGWKLAHPQVPLFQSMGLVAAANFLANLVCLRLLWPYRDGDINLASAWACSRNDVYEGVAVLAASGAVWALGSGWPDLLIAVGLLVVFLRSAWQVARRAWAELGTAG | failed |
| MSAPLVYHHTPPALLPLYGKALLPKSGKNHPEAVQIPRLEASLLGVTTDIPALRDYMKVCNFQPGTRLPVTWPHILAFPLHLKLLTEPAFPLPLLGLVHLRNSITQHRPLAAGENLDLKVILDNQKRTDRGLEFDLVTEARASGRLIWEEVSTNLFRITNGPGKTSPKPKPELETYPFSEAIKAPENLGRQYAKVSGDRNPIHMHALSARAFGFPRAIAHGMWSKARALALLENQKGWKDGPVRASCQFKKPLLLPGNAMLNWQTGKDGWDFQLLNAKGDAPHLTGRIDWL | failed |
| MSASLPRTSATALSSTSPLSARDAAPPKRPRFLRGGVAFSLSPNRDNGLVTFRLDTIGTGLVFADSLSNLTAALATQGGGGAAVVQAPPGTGKTTLVPPLLANLVSEQSPGRPRVVVTQPRRVAARSAARRLASLDGSQLGRRVGYTVRGESKVSQDTVVEFVTPGILLRRLLADPGLEDVSAVVLDEVHERGLETDLLVGMLAEVRELRGDITVVAMSATLDAARFATLLGTGLDGGDPAPVVDCPSALYPLKVQWVPAREHRLDARGVSRLFLDHVAHTAATTHAAALAPDADVDALVFLPGAREVSDVATRLRGLVSGNVEVLELHGQIGPEAQDRAVSGREPGGLPRIIVSTSLAESSLTVPGVRVVIDSGLSREPRRDAGRGMSGLVTVSCSRASADQRAGRAARQGPGTVVRCYDQQAYAAAPAHQTPEISVADLTSAALVLACWGAPGGVDLKLPDAPPAAAMNDAVEVLRELGAVTAEGTVTAVGKTLARIPADPRLARALLDGSAVAGRRAAAETVALVAGGQRAPGADLNKLLSALRSGSDPGARRFAEDVQRMETLVRKEAAAVVRPKAAADVTAGEATGLVVALAFPDRVARRVPGDGSTTYLLSSGTRAGLPSGSSLSGHDWLAVAEVSRAQGRDAAGTGAVIRSAATLSAELAEAAAPDLLTEKVEAKFDQGRVMARLERRLGAIVLSSTPVRPTAESGRRAVSEALEKTGLSMIGWSPAADALRRRLALLHRELGSPWPDVREAALLSRLEDWLGPELEAVATGAAVSSINLVDPLRRLLPWPDAARLEDLVPERLEVPSGSRVRIDYPEVSDRSSGDHDDGRPVVAVKLQECFGWDSTPRLLAGRVPVLFHLLSPAGRPLAVTDDLASFWSGPYSQVRAEMRGRYPRHPWPEDPWTAQATAKTKNRM | failed |
| MSATVPSTASSRAPATTGFRSFLPLIGAVVIWGGNWPVMKMGLAHISPLWFAACRFGSAALISFLVLGALRRLRLPSRQEWPLVIGVGLLQMGAFTALALWALQYVPPGRASVIAYATAIWVIPLSSLVLGERPSRLQWLATAFSYAGIAVIVAPALGGWELHTVMGLTMLLGASLAWSVSIIQLRANRAIRLGADMIPWECAVATVPLIALAWLRDGAPDLGAMVDIWPVIAYTGPLATALTFIVVLNVTQSLPPAATSIAMLGVPVIGLVLSTVAWHEQISLDLSIGLALIGMGVVTTALAPRLGRLAAR | failed |
| MSAVTYTFLGPQGTFTEAALMQVPGAADATRIPCTNVNTALERVRAGEADAAMVPIENSVEGGVTATLDAIATGQELRIIREALVPITFVLVARPGVELSDIKRISTHGHAWAQCRLWVDEHLPNADYVPGSSTAASAMGLLEDDAPYEAAICAPLIAAEQPGLNVLAEDIGDNPDAVTRFILVSRPGALPERTGADKTTVVVPLPEDHPGALMEILDQFASRGVNLSRIESRPTGQYLGHYFFSIDADGHATDSRVADALAGLHRISPATRFLGSYARADKQPAVVAPHTSDAAFASAHAWVDSILKGS | not failed |
| MSCCIANAIRWDVSLLIHRSMSSSMSSVQPTSPVSDSPSLGEMHASVAVSRRGHWGFRLLAFLGPGYMVSVGYMDPGNWATGLAGGSRFGYMLLSVILLSNVMAIVLQALAARLGIASDMDLAQACRARYSRGTNLALWAVCELAIIACDLAEVIGTAIALNLLLGVPIILGAVITAVDVVLVLLLMHRGFRALEAFVIALLLVIFGCFVVQIVLAAPPLQEVLGGFVPRWQVVADPQALYLAIGIVGATVMPHNLYLHSSIVQTRAYPRTPVGRRSALRWAVADSTLALMLALFINASILILAAAVFHAQHHFDVEEIEQAYQLLAPVLGVGVAATLFATALLASGINSTVTATLAGQIVMEGFLRLRLRPWLRRVLTRGLAIVPVIVVVALYGEQGTGRLLLLSQVILSMQLPFAVIPLLRCVADRKVMGALVAPRWLMVVAWLIAGVIVVLNVKLLGDYAVHLMVGVSD | failed |
| MSCTGFWRKLASGEECGAAARLLGAVLAIPAALYGLVVRLRALAYARGLSTVRHLDRPVISVGNLTVGGTGKTPMVAYLARRLMARGKRVAVISRGYGGSLEGETRIVSDGRTIVLSAAEAGDEPVHLATSVPGLMTVIGTDRYTAGLLALEQLDPDVFILDDGYQHLRLHRDLNILLMDCNRPLGNGRTLPAGLLREPQTAVRRADLVVYTRCTGGKAPAVHGMIPSCRAGHALTGAALLPDGEVQPLAALRGLRGVACAGIAEPEGFFDALRREGLDIVAAIPFADHASYGEREVSTLREAAAGADYLITTGKDGVKLSAHLARLLPVYATVLEMRPLDPAPLEAALDKVL | failed |
| MSDAHVLKSRLEWGEPAFTILDVRDRSTYNDGHIMGAMAMPIEDLVDRASSSLEKSRDIYVYGAGDEQTSQAVNLLRSAGFEHVSELKGGLAAWKAIGGPTEGIIESRLEHHHHHH | failed |
| MSDARAWDSPDDAHRLIAKALAELVAEDPTIPPHPYLSRHLAQHAARGRVLDDTHVPLAILPWESSRNVRILLRQTGATQQQDWLEAWAGIEPFVRDADPDSRLTSLHLAHHTATCRRLSLTARPVSERRLAGSRITPLWSDWTAPDNVLAVSDTLVESLAHTTTAPGRTLLISGDSHGTIRMWEANGTPAGAPLHTHGGAIQHLLPLQHDLLVSGGTDGAVRVWHSTRGQQLVEPVRRPHTWVSALALFEPADGARFLLVAHSDGHLTALDPVTFEPADTPLPALDPAPAILTPLATADGTALVIAQGRRVVVWRPGRGVVHISEHQGEVRAVVALPSGGRYAVCDDSGYLGFWDVSTGHETVAAGPAHDGPVIALTTLAVDGRQTVVSAGLDHTLRVWDADTGRPVGGALEGHTDPPVALTTLPGEGQELVVSAAADHTLRRWKLAGHGTRPRRPVRRPVTAAALPGPTVVPALLAAVADGAGTALWNVRTGRHVSLPAGEPPVTAFAWATVHGDPVLLTAHSDAAVRLWSLYAGNAVTPSLRGTLLNHSLPVQAMTAFPHAGATLLATGGADGSVRLWHLGDRLELAHWDDHALSVRDVTLLGTGEDALIVSAGSDGTVRLWDPGTRRASGGPVHCGQQVVHAVTTVAPHPDEAALIASGGEDGTVRLWDPTTRQPVGDPLDARDGAVTALASFHTPAGRPCLAAAGPSGTIHLWDVAARTHLLRIVTGNPLSTLAARQTGEPFTEHPVLLAAGTAGVCMFDVRLERLR | failed |
| MSDAVEEAEARAVEPVGAKQRDAFISYSQSKNAPLAKQLQRGLERLAVSRFRPMRMSVFRDVTSLPANHDLWQSIQRELARSRYFILLASPEAAASPWVAREVDYWLRERDTEHLLIAVASGEIVWDDRAGDFDWRKTTSLPRNLAGHFTAAPLWVDLREIGERSHHSMRYPPFRAAVATLASPLHGRPKEELEHDDFRQLRFVKRLSWSGVALLVALLVLAVYGFFDASRQREAALSQARTSASQALAARSGQLLGTSPNQAAQYALYAEETRSTPESRRALAQAVTAAPYARRRLRADADSVTDMQGASRPAATDVVLSGDGTTAAYRSVFDDDRAVRLYDVPSARQSRVVRAEGTPRALSRDGRVLAMEVYLNRVQLWDTRSGRLLSTMATGHTENLPHVGHGLHALALSPDGRWVAASHYTPEGEAFAVVWRASDGREITRVPVSDARVGLGFSADGSRLTLVDQDRREVREFRTDSARWEAARSLPGMPGSTAEALRYSEVLLFDGARKALTRTSERAEVWDLEQRRRIAVRSLGPYEDMTVADDKGIFLLGGQDGTVRLYDAALRPGTTLGRLTRPASTIAMSADGTQVVVASYGGELNLFTTGVRRGQQVAFDEKDFTFGDLTPDGRMAVHRSEGRTEFWDPATGRRLGVIPYANLSVNLEDTAYTLSGDKRYVGMQSVEGFEDEGRFDVWDLRTGRRTDCGTAVGGSSFSPIRRPGLSFLPGDRYVVGEWNGAVELLDTRTCTRSTVTEDSGRFALSGDRRTLVLLNDDGVDTWRWDGDHAFARAARTTLPSEAHPVDMSVDHEGRQAAFSDRESHVYVVRLDSGERVRATGYLPDKTDAVAFSRDGRLLFQGFMTESTRGVRVLDAGSGDQLDIWTTDPPTGSVQPNEGMQVVPGPADDILTLGPDHKVVRRTVGVGAWHDLLCGLVSQPLPARERDRYLKDLDVEDPCR | failed |
| MSDDNSHSSDTVNSKKGFFSLLLSQLFHGEPKNRDELLALIRDSGQNELIDEDTRDMLEGVMDIADQRVRDIMIPRSQMITLKRNQTLDECLDVIIESAHSRFPVISEDKDHIEGILMAKDLLPFMRSDAEAFSMDKVLRTAVVVPESKRVDRMLKEFRSQRYHMAIVIDEFGGVSGLVTIEDILELIVGEIEDEYDEEDDIDFRQLSRHTWTIRALASIEDFNDAFGTHFSDEEVDTIGGLVMQAFGHLPARGETIDIDGYQFKVAMADSRRIIQVHVRIPDDSPQPKLDE | not failed |
| MSDEWIKIFESDFYVREMIKVWDEGEKWANWIDEVVSKYKLEKKVLDIPCGIGRVSYFLANRGYKVTGIDISERMISMARSNIQNGKFIVGDMRKIKEIIGNEKYDLVINIYNSLGYYSEEDDLKILESLRDSTRKIVVINLDNRDYIIYNRPNEYYTYIPPYLVYSKVEFEQETSRLKIYRKYYLNDKEVGEMIYEQRLYSIHEILALLKKAGLQPIEVLSGYSWKKFSIMDPEMTIIATPA | failed |
| MSDFNLVGVIRVMPTDPDVNLDELEEKLKKVIPEKYGLAKVEREPIAFGLVALKFYVLGRDEEGYSFDEVAEKFEEVENVESAEVETVSRI | not failed |
| MSDFVNGFWSYFIGIIAIGGIVWCVWLLYSQRRWLSTRPAGGVVEDTGHVWDGDLTELNNPVPRWWTWMYLLTCVFALGYLVLFPGVGSYQGTLGYTSVGEVKQKQAELAERVKPVYERFGGMTPEQLVADAPAREIGQRLFLNTCAQCHGSDAKGSTSFPNLTDGDWLYGGTPEIIAETIAKGRHGVMPPWKGVIDPRMAGDIAHYVRSLSGLAVDPVRVFRGKREFANYCVACHGVDAKGNQALGAPNLTDDVWLYGSSEASIVRTILDGRDNRMPAHEEVLTPEQIKLLSAWVWGLSNQAPAKAAEAAR | failed |
